The nature of the data set: label from the status in PepcDB records.

Results on 17 sequences are retold here after a protein production outcome set (Wang et al. 2014).

As to “MSMVGAIILSIIIGIAAFFIHPLLYIGLALMGLIGWQRVRREREHFHTRVLRIRADYVVPFLPGLIAGSLLSLVTIVIGLTVSIDWLWLLLIVYLLTIVTMNIRWISPAYVGAFMIGVVLLAPFVTTGWPWFDERLQSASQIPVLVIMYLTVLLLSAEGMLIAKRGGSFSSPVVVRSKRGKWVGFHRVKRLWLLPVVLFIPEGAIPTFSFWPILTVAGVSLQPLVVPFLIGTDFKIWSSLPKVVSRKVGNQVLGLALTLALIVCITWYVPWLSVLFAIVAIVGREGIHLMAKIKDRSSTSLFTNQGTGCKVLGILPGSPAEKMGIKIGETILRVNGKMVNNEYSFYEALQENSAFCRLEVIDKAGEVRFAQGALYDGEHHQLGVLLVKEDRELQDSVI”, the protein production result is reported as “failed”. For the sequence “MSNAVSAENEGPGAIPGLLHLSGPCVYVAGSQGVSMTQTMPIGAVIAPVTPLQQNCTIVWCAKTLKAAVIDPGGEVDRLLKAIADKGLTLEKIWITHGHMDHAGGAAELKARTGVPIEGPHKDDQFWIDRIQDSGEMYGMPEARIFVTDRWLDDGDTVTLGETEFEVFHCPGHTPGHVVFFHRETKFAQVGDVLFQGSIGRTDFPMGNHQDLIDSITQKLWPLGEDVRFVPGHGPMSTFGAERRGNPFVGDRVVAAMKAQGAGFTIPKNNSPG”, the protein production result is “failed”.

As for “MSNDQSAMNELHWLIDMVQTIEVGLVVLDRDYNIQLWNGFMENHSGVSPNSIKGQNLFSRFPDLPATWLKQKMESVFMLKNRAFISWEQRPYVFQFKNYRPITGRADFMYQNVTLLPLASLTGKITHISVIVYDVTDIAVNKLQLKAANEQLERLSQTDGLTQLHNRRHWQQCLEHEYDLYARYSGIASLVMIDIDHFKNINDTYGHLAGDKVIQHIAHILSHSLRETDCAGRYGGEEFAVVMPSTCGADALNFTERLREKIASSTVVYEGLKIKVTVSLGVCELGKHISSSSSWISCSDKALYEAKQKGRNCTVLHCAPTSAE”, the protein production result is recorded as “failed”. With “MSNEISLCMIVKNEEKYLFQCLDSVKDIVDEIIIVDTGSTDKTVEIAKKFGAEIHYFMWNNSFSDARNESLKYATKDWIFIMDGDDEFSKDDKEKFKELVKNNLKEDCLYYFETLSYCGEFVDSSNISVNLNPRLFKNNYGYKYEGIVHNQLINTEKEIKNVIYNIRIYHYGYLEDVSKKKNKRGRNIPLLKKQLKENPDDRFAHFNIGNEYYAIGDLQKALTHYCEAYKDFNPSSGFGFVLITRLIVTNFGIGKHEKAIEFADIGLEYYPNATDIYFLKALIYEATRRPTLAIKALKRCIEMGEPPSNLKLYYGTWSFKALYELVNIYMGLKDYEEAYKYCIETIKAKNDFVNPVYVIGHILKERKTPIEEFKVELEKLFSDYPKAYFFIANILYDEGYFNEALEYTDKCEKEGLNSDAILDLKLKAMIRAQKFNECAEANYFAKESVFYFNASMYKVLSLVLIGKFKEALKDLEIFKDGKLKRQDKKELEVYSQFVKLFMNEETKVLSEDKEDKEYTGFILDICDILLSNKLYDEFEKALNLFNLISDENVLLNLSKLYYKHGIESMAKKEAIRSIKEFEVFDNEILDILR” the entry was “failed”. The value for “MSNELLMSSAEYPAHQENKRFRGASSQNITVILPACNNEVSIGSLILLTRLYADNVIVVDDGSTDRTVEISRKAGAHVIVNEACKGKVGSLRTGFTAAADLGADIIVTMDPDGQHNPAEIPRIVAPIIDGTAEMVNGSRYLNYPGKNSSVYSRTGQTMQDISANMNFNLKITDTQSGFRAYAASTKSIFRFSGKKTAIENEMLADAGRSGIRIAEVEIGACTSVGASIRDPVKYTLGALRTMAEDIEANKPLYFYSVPGFALATCGFFMGFKFMADYFFGIASLNFGHTFLMVFLALAGAYMTLRGIIAHSMAGAARQTDST” was “failed”. With “MSNESETDVDEETADEEEQAEGLQKGDVVKLAYTARTVDGGQLVDTTDEEVAEDDGIDTEQQEFGPRTIVLGENHIFPDVEQDIYGKEVGDEGDVTVAAADAFGEYDEEEVRTVSKDKIPEDDRYPGAHVDLEGEHGHVETIIGGRARVDFNHPLAGEDVEYDYEVLEEVTDREEKAQGIIQMMLDMELDVWFETDTVEEEQLVESEDEDEDEESEPEYETVEVEKETLYIEATPQLTMNQQWMMGKQQIAQQLTQLLDIDRIIVQEEIGGGGMGMPGMMGGMGGAGGADIEDALEDADVDAEEIVEEIEGAEE” the entry was “failed”; with “MSNFFKQTLASLLGTLLGLFLFAGAGTTGLLLLLFAAASSSNTGPVVKDKSVVVFDLSMNITDREPSAGEELQNRFSGVTQERMTLRNVIDSLEKAQRDKRIVAIYLDGSRGGNNLGFASLKEIRKALEEFRKSGKKVIAYGVAWDEKEYYLSSVADTIALNPLGGLEINGLSSQPMFLAGALQKYGIGVQVVRAGKFKGAVEPFLLDKLSPENREQTQKLLDDVWGEWRTTVGNSRKINPQKLQAIADNQSLLEATEAKTNGLVDQVAYNDQVVADLKKLTGSNKKDNTFTQISLRRYAQVPGQSLGLEKNSKNKIAVVYAEGDIVDGKGDDGQIGGDRFARIFNKIRQDENVKAVVLRINSPGGSATASEVMQREIRLTRESKPVVVSMGDYAASGGYWIATDSNRIFAEPNTITGSIGVFGVLFNGQKLANDNGITWDAVKTARYADSQTVARPKSPQEIAIYQRSVDRIYNMFVNKVAQGRKLPTQKVAEIAQGRVWSGVTAKQIGLVDEIGGLNAAIEYAAKAAKLGKDWQLREYPRESSFEERFFGGVVEEISTTLGIKKLDVKPNDPLTVQIQKIQQEISILQTMNDPQGVYARLPINLKIE”, “failed”. In the case of “MSNIIVLSGSPRKGGNTDLLVDAFVKGAEKSNNVEVVSVAYYKVNPCIGCNSCFDRAGHECFQQDDMQIVYDKLKCADVIVVASPVYFYGVSAQLKAIIDRLHTPMRNDFKVKKLALILVGAAVLPELFDSIKIQYQLVLNFFKLEDAGMVLVRGAKDKGDVRNTDGLDEAYRLGLAME”, the protein production result is recorded as “failed”.

As to “MSNKRKLWQIFGPVLCAFILLIILFLIPWQNGEKSDNALFKASVSQSQTVFKGQSIKQAAFEKNYVPFYGSSELSRMDALHPSVLAYKYKRNYRPFLLGGPGSQSLTHFFTMQETVNQLSNKKAVFIISPQWFTKQGQNPAAFGMYFSQLQAVDWILTAKDSVATRYAARRLLDMPAGTASETTKYALMTLASGQKLSKYQTLYLKARRRMLANEDNFFSSIGMTNNIPKIQKEAGKLPGTYAYDNLRQFANEQGQQGTTNNKFGISNGFFDKKLNNKHLKHLKNSQRDFDYTQSPEYADFELVLNELAHEHVNVLFIIPPVNEKWAKYTGLSQTMYQECVAKITKQLTSQGFNNIANLSKDGGKKFFMEDTIHLGWNGWLKVDQYVKPFMEEKNHPVNYKLNSYYFTKAWGNKTNVKMPNVKSKAAVDIKKN”, the protein production result is “failed”. Consider “MSNRIKNIHYGTQRQQLKNLTKKEYQALREMCFLAKNLYNVGTYNVRQHYFNQGEHLNYEANYHVCKENENYKLLNSNIAQQILKEVDSSFRSFFGLIKLAKEGKYDFRGIKSPKYLDKEGFFSIIIGQIRIKEDGILNVPMSPAFKKLYGKVSIKVPQNILEKKIKEIRIIPKHKARFFEIQYCYEIPKSEEVSNQKNALAIDLGLENLCTCVTNLGDSFIIDGKRLKSVNQWANKQNDKIEALKLKKNITAITRKQFKVWNKRNNQVKDYVNKTCFYIIDYCVKNNIGNLIVGYNAKLEKSDNMERKIYRNFIRIPFGEIKGKLEYLCKIKNINFIRQEESYTSKSDFFADDFLPDINVDNVKKYDFKGERITRGQYKSSVGIIINADVNASLNILKKSQVVNLSNLQNNPQILKQPQRVRIS”, for which the protein production result is “failed”. Take “MSNSSMSVVILAAGKGTRMYSDLPKVLHPLAGKPMVQHVIDAAMKLGAQHVHLVYGHGGELLKKTLADPSLNWVLQAEQLGTGHAMQQAAPHFADDEDILMLYGDVPLISVDTLQRLLAAKPEGGIGLLTVKLDNPSGYGRIVRENGDVVGIVEHKDASDAQREINEINTGILVANGRDLKRWLSLLDNNNAQGEFYITDIIALAHADGKKIATVHPTRLSEVEGVNNRLQLSALERVFQTEQAEKLLLAGVMLLDPSRFDLRGELTHGRDITIDTNVIIEGHVILGDRVRIGTGCVLKNCVIGDDSEISPYTVLEDARLDANCTVGPFARLRPGAELAEGAHVGNFVEIKKARLGKGSKAGHLSYLGDAEIGAGVNIGAGTITCNYDGANKFKTIIGDDVFVGSDTQLVAPVTVANGATIGAGTTVTRDVAENELVISRVKQVHIQGWKRPVKKK”: the protein production result is “not failed”.

As for “MSNVLIINAMKEFAHSKGALNLTLTNVAADFLRESGHQVKITTVDQGYDIESEIENYLWADTIIYQMPAWWMGEPWILKKYIDEVFTDGHGRLYQSDGRTRSDATKGYGSGGLIQGKTYMLSVTWNAPREAFTDPEQFFHGVGVDGVYLPFHKANQFLGMKPLPTFMCNDVIKQPDIEGDIARYRQHLAENVNS”, the protein production entry is on record as “not failed”. As for “MSNVRVLATDLAFPEGPVVMPDGSVVLVEIRAQQLTRVWPDGRKEVVAKVPGGPNGAALGPDGKMYICNNGGFGWFPSRGTMMPGAPAPHEYIGGSIQRVDLQSGEVETLFDKCGEHPLKGPNDLVFDKHGGLWFTDLGKRRARDMDVGAAYYIKPGMTEITEQVFGTLPLNGIGLSPDEATMYAAETPTGRLWAFDLSGPGEVKPRDVIYRGEKGKPICGLGGYQMFDSLAVEASGNVCVATLVSGCISVIAPDGTLVEQVPTGDRVTTNIAFGGPDLKTAYITLSGKGELIAMDWSRPGLPLNFLNKLEHHHHHH”, the protein production result is reported as “failed”. As to “MSNWPYPRIVAHRGGGKLAPENTLAAIDVGAKYGHKMIEFDAKLSKDGEIFLLHDDNLERTSNGWGVAGELNWQDLLRVDAGSWYSKAFKGEPLPLLSQVAERCREHGMMANIEIKPTTGTGPLTGKMVALAARQLWAGMTPPLLSSFEIDALEAAQQAAPELPRGLLLDEWRDDWRELTARLGCVSIHLNHKLLDKARVMQLKDAGLRILVYTVNKPQHAAELLRWGVDCICTDAIDVIGPNFTAQ”, the protein production result is on record as “not failed”.

With “MSPAIITLLILVVAIIIFISDRLPMGLVAFMVPMALYFFGVIGVKDIFASIVNENVILIIAMCVLGAAFFKTGLAWQSSKILLKYAKTERSLSVLIFMISGVMSAFVSNSGTVAVLIPIVLGIAGTSQIKPIKLLMPLVFGATIGADISIIGSPGNLIAKNTIETFSKGNLSVPFFEYAKIGIPLMIACALLLFFFGSRLIPDRDGHEQSDVQMDYSHIPEWHKLLTLIVFVLAILGMVATDYVKFLPPIHIIACCAAIVLVLTGVLNQKETFNSFETLTVFMLAFMMPLGAALNSTGAGEMIARAVISVTGNSGVIVIMASLWILTWALTQVMSNTAACTLLCPVGWTIAQSIGADPRAVVIAIFIASSVAVCTPMAIPANSMIIGPGNVKFKDFLKPGLAISFVCFIVSMILLPVFYPFY”, the protein production entry is “failed”.

Regarding “MSPFLRIGLSNFDCGSCQSCQGEAVNPYCAVLVKEYVESENGQMYIQKKPTMYPPWDSTFDAHINKGRVMQIIVKGKNVDLISETTVELYSLAERCRKNNGKTEIWLELKPQGRMLMNARYFLEMSDTKDMNEFETEGFFALHQRRGAIKQAKVHHVKCHEFTATFFPQPTFCSVCHEFVWGLNKQGYQCRQCNAAIHKKCIDKVIAKCTGSAINSRETMFHKERFKIDMP”, the protein production entry was “failed”. The value for “MSPIARAALWMTGAIASFSAMAVAGRELSAVHDTFEIMMYRSFVGVLVVSLILSVTGTWHQVSTRALGLHALRNAVHFTGQNLWFFAVTVIPLAQVFALEFTQPLWVILLSPLLLGERMTRVRVAAAVIGFVGILIVARPGASSLNIGILTAALSAIFFAMTTISTKKLTRLASIGCIMFWLTVMQAVLGLVASGHDGQIALPTLGTAPYLVLVGLAGLLAHYCITNALAIAPATVVVPIDFARLPTIAVVGMLLYGEALDIWVLVGAAVIFAGNYLNILAETRNTAR” was “failed”.
